Measured values published in US20170275356A1.

Target: human IL-23 (human) (UniProt P29460)
Assay: cell-based or functional assay

human IL-23 (human), sequence (chain, as listed by the source limits assumed, chain 1 of 2): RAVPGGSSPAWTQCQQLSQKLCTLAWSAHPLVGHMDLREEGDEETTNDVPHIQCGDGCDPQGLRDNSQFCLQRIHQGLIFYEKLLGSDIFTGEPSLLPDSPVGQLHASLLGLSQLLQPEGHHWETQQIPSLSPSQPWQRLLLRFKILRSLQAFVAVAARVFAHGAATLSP
human IL-23 (human), sequence (P29460 23-328 limits assumed, chain 2 of 2): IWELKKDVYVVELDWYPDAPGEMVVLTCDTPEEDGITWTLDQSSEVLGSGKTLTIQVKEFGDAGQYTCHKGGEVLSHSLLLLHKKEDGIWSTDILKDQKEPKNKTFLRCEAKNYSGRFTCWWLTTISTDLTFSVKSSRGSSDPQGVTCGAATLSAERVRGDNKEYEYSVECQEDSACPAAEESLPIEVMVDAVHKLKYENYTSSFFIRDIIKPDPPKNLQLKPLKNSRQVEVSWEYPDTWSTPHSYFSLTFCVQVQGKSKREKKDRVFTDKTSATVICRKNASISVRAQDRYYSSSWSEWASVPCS

Ct value, murine IL-17A mRNA in skin injected with human IL-23 (in vivo neutralization): 35.4 Ct
Ct value, murine IL-17F mRNA in skin injected with human IL-23 (in vivo neutralization): 31.6 Ct
Substance: isotype control antibody
